Target: Bovine thrombin (bovine) (UniProt P00735)
Test: cell-based or functional assay

Coagulation time, substance 17 nM, bovine fibrinogen 1 mg/ml, bovine thrombin 18 nM; control 28.1 sec: 29.6 s
IC50 of inhibition of coagulation of bovine fibrinogen (1 mg/ml) by bovine thrombin (18 nM): 80 nM
clotting time, human fibrinogen 2.5 mg/ml, bovine thrombin 0.5 U/ml, ATIII (+) (human antithrombin III 250 ug/ml); control 49.5 sec: 80.8 s
clotting time, human fibrinogen 2.5 mg/ml, bovine thrombin 0.5 U/ml, ATIII (-); control 43.3 sec: 61.8 s
Substance: r-UTM (from UniProt P07204 19-486)

From patent publication EP0488317A2
